The target in this experiment is C-terminal extension of Bacillus cereus hemolysin II (HlyIICTD) (Bacillus cereus). Nature of the experiment: not stated; HlyIICTD in the presence of 4M urea.

The term stoichiometry N denotes a count of units in the complex or per binding partner. “C-terminal extension of Bacillus cereus hemolysin II (HlyIICTD) (domain or fragment)”: the stoichiometry N turned out to be 3.

(Values after publication PMC8069557.)
